From US6339070B1, “Gene construct encoding a heterologous prodrug-activating enzyme and a cell targeting moiety” (Zeneca Limited, priority 1997, dated 2002)
“Also recorded” adds a separate entry of the source.

What was measured:
[1] = tested on: CEA positive LoVo parental line; assay: Cell based ELISA of secreted fusion protein, CEA positive cells; details: increasing amounts of added fusion protein, listed as (A5B7-CPG2)2 fusion protein
Procedure: (§1) Cells were seeded into 96 well plates (Becton Dickinson Biocoat™ poly-D-Lysine, 35-6461) at a density of 1×10^4 cells per well in 100 μl normal culture media and left about 40 h at 37°. 100 μl of 6% formaldehyde was diluted in DMEM and left for 1 hour at 4°. Plates were centrifuged and washed 3 times in PBS containing 0.05% Tween™ by immersion soaking (first two washes for 2 minutes and the final wash for 5 minutes).
(§2) 100 μl of doubling dilutions of cell culture supernatant containing fusion protein or chimeric A5B7 anti-CEA were added to each well as appropriate and the plates incubated overnight at 4°. The plates were washed as described above and, in the case of chimaeric fusion proteins. 100 μl of 1:1000 dilution of HRP labelled anti-human kappa antibody (Sigma A-7164) was added and incubated for 2 hours at room temperature (an anti-CPG2 detection methodology can be used in the case of murine scFv fusion proteins). The plates were washed as described above and HRP detected using OPD substrate (Sigma P-8412). Colour was allowed to develop for about 5 min, stopped with 75 μl per well of 2M H2SO4 and OD read at 490 nm.
(§3) In the case of the (A5B7-CPG2)2 fusion protein, material was produced in the supernatant from recombinant Colo32ODM tumour cells (CEA-ve). The fusion protein content was measured by use of the CEA ELISAs described above. […]

CEA negative cell lines = assay: Cell based ELISA of secreted fusion protein, CEA negative cells; details: increasing amounts of added fusion protein; listed as (A5B7-CPG2)2 fusion protein
Procedure: as §1, §2, §3

[2] = tested on: recombinant LoVo tumour cells; assay: Retention of secreted fusion protein on recombinant LoVo cells (cell based ELISA); details: CEA positive, without added anti-CEA antibody, listed as (A5B7-CPG2)2 fusion protein
Procedure: The vertical axis represents optical density readings measured at 490 nm and the horizontal axis the amount of added anti-CEA antibody (IIE6) measured in ng/ml of protein. […] Firstly, the cell lines were fixed and washed to remove the existing supernatant and any unbound material after which increasing concentrations of the anti-CEA antibody (IIE6) were added to the fixed cells. The assay was developed as described in the text to determine the level of retention of any secreted material and whether further added antibody would increase the signal. […] Since the recombinant Colo320DM are CEA negative no increase in signal due to anti-CEA antibody the results for these cells would be expected. In the case of the recombinant LoVo cells the addition signal due the amounts of antibody added in this assay may be swamped except at the highest dose due to the relative strength of the original signal.
LoVo colorectal tumour cells transfected with the (A5B7-CPG2)2 fusion protein gene have been shown both to secrete and to retain the fusion protein on their cell surface. […] The recombinant LoVo cells still gave such a strong initial signal that the added antibody made little difference to the overall signal obtained, which was considerably higher than any of the control experiments.

B1: (A5B7 Fab-CPG2)2 fusion protein: chimaeric A5B7 anti-CEA Fab, heavy chain Fd linked via (G4S)3 linker to CPG2 R6, dimerised through CPG2 (antibody)
heavy: EVKLVESGGGLVQPGGSLRLSCATSGFTFTDYYMNWVRQPPGKALEWLGFIGNKANGYTTEYSASVKGRFTISRDKSQSILYLQMNTLRAEDSATYYCTRDRGLRFYFDYWGQGTTLTVSSASTKGPSVFPLAPCSRSTSESTAALGCLVKDYFPEPVTVSWNSGALTSGVHTFPAVLQSSGLYSLSSVVTVPSSNFGTQTYTCNVDHKPSNTKVDKTVGGGGSGGGGSGGGGSQKRDNVLFQAATDEQPAVIKTLEKLVNIETGTGDAEGIAAAGNFLEAELKNLGFTVTRSKSAGLVVGDNIVGKIKGRGGKNLLLMSHMDTVYLKGILAKAPFRVEGDKAYGPGIADDKGGNAVILHTLKLLKEYGVRDYGTITVLFNTDEEKGSFGSRDLIQEEAKLADYVLSFEPTSAGDEKLSLGTSGIAYVQVQITGKASHAGAAPELGVNALVEASDLVLRTMNIDDKAKNLRFQWTIAKAGQVSNIIPASATLNADVRYARNEDFDAAMKTLEERAQQKKLPEADVKVIVTRGRPAFNAGEGGKKLVDKAVAYYKEAGGTLGVEERTGGGTDAAYAALSGKPVIESLGLPGFGYHSDKAEYVDISAIPRRLYMAARLIMDLGAGK
light: QTVLSQSPAILSASPGEKVTMTCRASSSVTYIHWYQQKPGSSPKSWIYATSNLASGVPARFSGSGSGTSYSLTISRVEAEDAATYYCQHWSSKPPTFGGGTKLEIKRTVAAPSVFIFPPSDEQLKSGTASVVCLLNNFYPREAKVQWKVDNALQSGNSQESVTEQDSKDSTYSLSSTLTLSKADYEKHKVYACEVTHQGLSSPVTKSFNRGEC
With B1 as the molecule, how does the “binding to CEA positive cells (OD 490 nm)” value [1] read?
The value was “increased levels of binding with increasing amounts of added fusion protein; also recorded: binds specifically to a CEA positive cell line in a dose dependant manner”.

And the “binding to CEA negative cells (OD 490 nm)” value (CEA negative cell lines)?
The value was “only constant background binding levels throughout; also recorded: do not bind to CEA negative lines”.

What about the “retention of expressed fusion protein on cell surface (OD 490 nm)” value [2] of the same molecule?
Its value is “had retained the expressed fusion protein; also recorded: very strong OD 490 nm reading”.
